The target of series [1] is T1, GST (UniProt P08515 P08515:1-218). Kind of series: EMSA; GST negative control. Particulars: tags: GST alone, pGEX-KT; label: radiolabel. The protocol:
(§1) FIG. 4B is an image depicting an analysis of recombinant porcine pLhx3 protein binding to DNA target sequences. The image depicts electrophoretic mobility shift assay using labeled wild type and mutant oligonucleotides representing the −351 to −324 bp region of the porcine αGSU gene promoter. Probes were incubated with the indicated proteins and competitor DNA and the resulting complexes were separated from free probe (F) by electrophoresis. The panel on the right of the figure was exposed three times as long as the left-hand panel to detect weak binding of GST-pLhx3 to the porcine αGSU binding site (which is indicated by an arrow).
In general terms: In EMSA bound probe runs differently from free probe, usually more slowly.

In series [2] the target is T2, GST-ΔLIM pLhx3 (Sus scrofa, UniProt O97581 SEQ:134-383).
T2 chain: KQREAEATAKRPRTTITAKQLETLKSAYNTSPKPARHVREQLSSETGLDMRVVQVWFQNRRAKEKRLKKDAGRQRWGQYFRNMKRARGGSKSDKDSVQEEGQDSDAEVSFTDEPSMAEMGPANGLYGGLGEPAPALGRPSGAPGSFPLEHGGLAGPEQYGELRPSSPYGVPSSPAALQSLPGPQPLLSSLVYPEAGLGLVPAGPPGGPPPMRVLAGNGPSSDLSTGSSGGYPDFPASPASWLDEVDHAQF
The series can be described thus: EMSA; affinity relative to full-length GST-pLhx3 (LIM deletion); competed by unlabeled wild type. As to conditions: tags: N-terminal GST (pGEX-KT); label: radiolabel. The protocol: as §1

Series [3] addresses T2, GST-ΔLIM pLhx3. Kind of series: competition; 200 ng unlabeled mutant did not compete. As to conditions: tags: N-terminal GST (pGEX-KT). Here is the method: as §1
The target in series [4] is T1, GST. The series can be described thus: EMSA; GST negative control. Particulars: tags: GST alone, pGEX-KT; label: radiolabel. The protocol:
(§2) FIG. 18B is an image of a gel depicting an electrophoretic mobility shift assay (EMSA) using Lhx3 consensus binding site (lanes 1-12) or αGSU gene −350 to −323 binding site (lanes 13 and 14) as oligonucleotide probes. Radiolabeled probes were incubated with the indicated proteins and competitor DNAs and the resulting complexes were separated from free probe (F) by electrophoresis. Lane 1, unprogrammed rabbit reticulocyte lysate as a negative control (lysate); lanes 2-5 (hLhx3a; hLhx3b; hLhx3a-myc; and hLhx36-myc, respectively), reactions contained in vitro translated hLhx3 proteins including isoforms comprising a myc tag epitope. A nonspecific band is noted by an asterisk (*). Human Lhx3 protein/DNA complexes are indicated by an arrow. Lane 6 depicts the lack of binding using GST as a negative control; lanes 7-14 (GST-hLhx3a, more GST-hLhx3a, comp plus hLhx3a, GST-hLhx3b; more GST-hLhx3b, comp plus hLhx3b, GST-hLhx3a, and GST-hLhx36, respectively) depict binding of the DNA probe by recombinant hLhx3 proteins expressed in E. coli. “Comp” denotes reactions containing approximately 1000-fold molar excess of unlabeled binding site as a competitor.
The source holds these as a separate data set.

Series [5] has as its target T3, hLhx3a (Homo sapiens, UniProt Q9UBR4 SEQ:1-397).
T3 sequence: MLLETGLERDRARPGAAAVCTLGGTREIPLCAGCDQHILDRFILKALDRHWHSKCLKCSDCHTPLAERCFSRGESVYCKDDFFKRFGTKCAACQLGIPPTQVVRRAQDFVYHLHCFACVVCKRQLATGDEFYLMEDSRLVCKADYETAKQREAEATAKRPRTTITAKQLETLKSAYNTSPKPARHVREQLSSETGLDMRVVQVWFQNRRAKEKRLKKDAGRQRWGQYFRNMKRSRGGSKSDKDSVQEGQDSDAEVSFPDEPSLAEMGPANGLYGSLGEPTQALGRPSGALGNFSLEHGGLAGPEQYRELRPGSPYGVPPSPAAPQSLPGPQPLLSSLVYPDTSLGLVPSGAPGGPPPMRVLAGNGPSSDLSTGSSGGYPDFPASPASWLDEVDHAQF
The series can be described thus: EMSA; binds more effectively than hLhx3b. Particulars: label: radiolabel. Here is the method:
(§3) Radiolabeled probes were incubated with the indicated proteins and competitor DNAs and the resulting complexes were separated from free probe (F) by electrophoresis. Lane 1, unprogrammed rabbit reticulocyte lysate as a negative control (lysate); lanes 2-5 (hLhx3a; hLhx3b; hLhx3a-myc; and hLhx36-myc, respectively), reactions contained in vitro translated hLhx3 proteins including isoforms comprising a myc tag epitope. A nonspecific band is noted by an asterisk (*). Human Lhx3 protein/DNA complexes are indicated by an arrow. Lane 6 depicts the lack of binding using GST as a negative control; lanes 7-14 (GST-hLhx3a, more GST-hLhx3a, comp plus hLhx3a, GST-hLhx3b; more GST-hLhx3b, comp plus hLhx3b, GST-hLhx3a, and GST-hLhx36, respectively) depict binding of the DNA probe by recombinant hLhx3 proteins expressed in E. coli. “Comp” denotes reactions containing approximately 1000-fold molar excess of unlabeled binding site as a competitor.
(§4) Without wishing to be bound by any particular theory, mechanisms for the different activities include the possibilities that the a-specific and b-specific domains are trans-activation or trans-repression domains, respectively, or that the a- and b-specific domains mediate interaction with distinct regulatory factors, or that the a- and b-specific domains modulate the DNA binding properties of hLhx3 differently. […]

The target of series [6] is T4, GST-hLhx3a (Homo sapiens, UniProt Q9UBR4 SEQ:1-397).
T4 sequence: T3 sequence
Kind of series: EMSA; reduced by 1000-fold unlabeled competitor. Particulars: tags: N-terminal GST (pGEX-KT); label: radiolabel. The protocol: as §2

The next series deals with T5, hLhx3a-myc (Homo sapiens, UniProt Q9UBR4 SEQ:1-397).
T5 sequence: T3 sequence
Kind of series: EMSA; similar to untagged; more effective than hLhx3b-myc. Particulars: tags: C-terminal myc (pcDNA3.1/Myc-His); label: radiolabel. Here is the method:
as §3, §4

The target of series [7] is T3, hLhx3a. Kind of series: EMSA; in vitro translated; text states more effective than hLhx3b at both sites. Particulars: label: radiolabel. Here is the method:
as §3, §4

The target of series [8] is T4, GST-hLhx3a. The series can be described thus: EMSA; binds more effectively than GST-hLhx3b. Particulars: tags: N-terminal GST (pGEX-KT); label: radiolabel. Here is the method:
as §2

Bounds are passed on as bounds.

T1 sequence (P08515 whole entry, one chain of several): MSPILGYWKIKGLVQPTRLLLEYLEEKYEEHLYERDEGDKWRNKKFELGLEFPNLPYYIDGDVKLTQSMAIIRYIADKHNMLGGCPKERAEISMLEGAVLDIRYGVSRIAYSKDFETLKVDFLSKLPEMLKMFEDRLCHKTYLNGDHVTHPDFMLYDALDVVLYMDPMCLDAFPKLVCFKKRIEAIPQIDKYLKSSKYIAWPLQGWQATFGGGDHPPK

B1: porcine αGSU -351/-324 wild type (dsDNA)
DNA 1: ACATTAGGTACTTAGCTAATTAAATGTG
DNA 2: CACATTTAATTAGCTAAGTACCTAATGT
On to B1, for which the binding result in the series with GST [1] was “no binding”. The same molecule returned a binding signal with GST-ΔLIM pLhx3 [2] of at least 15 fold.

B2: porcine αGSU -351/-324 mutant (dsDNA)
DNA 1: ACATTAGGTACTTGGCGCGCCAAATGTG
DNA 2: CACATTTGGCGCGCCAAGTACCTAATGT
Turning to B2, the binding result in the series with GST-ΔLIM pLhx3 [3] is listed as “no binding”.

B3: Lhx3 consensus binding site (dsDNA)
DNA 1: CAGAAAATTAATTAATTGTAA
DNA 2: TTACAATTAATTAATTTTCTG
Take B3: the binding result is “no binding” in the series with GST [4], “binds” with hLhx3a [5], “binds” in the series with GST-hLhx3a [6] and “binds” in the series with hLhx3a-myc.

B4: αGSU -350/-323 (PGBE) (dsDNA)
DNA 1: ACATTAGGTACTTAGCTAATTAAATGTG
DNA 2: CACATTTAATTAGCTAAGTACCTAATGT
In the case of B4, the binding result with hLhx3a [7] and in the series with GST-hLhx3a [8] was “binds” throughout.

For the origin of these results see patent US20030027152, “Generation of diagnostic tools to assay the human LHX3/P-LIM/LIM-3 factor” (Indiana University Advanced Research and Technology …, published 2003).
